# Measured values: patent US20260176254A1, “INHIBITORS OF PROSTATE SPECIFIC MEMBRANE ANTIGEN AND USE THEREOF” (SHANGHAI SINOTAU BIOTECH. CO., LTD, priority 2023, published 2026)
# Columns and labels:
# Design in all cases: species or system mice
# [1] = tested on: LnCAP CDX xenograft tumor; assay: Tissue biodistribution in LnCAP tumor mouse model; conditions: male, SCID, in vivo, iv
# Source text: (§1) LnCAP and 22RV1 CDX xenograft tumor models were generated by inoculating 5×10^6 cells/site subcutaneously in male SCID or nude mice (Vital River), respectively. Animals were housed according to IACUC guidance and had accessed to food and water ad libitium. Animals were used for biodistribution study when the tumor dimensions reached around 0.2-0.3 cm^3. […] At each tome point, animals were sacrificed and tissues were collected, weighted, and subjected to radioactivity measurements using gamma counter. Radioactivity in the tissues was presented in % ID/g (percent of injected dose per gram).
# [2] = Tissue biodistribution in LnCAP tumor mouse model; conditions: male, SCID, in vivo, iv, total radioactivity
# Source text: as §1
# [3] = Tissue biodistribution in 22Rv1 tumor mouse model; conditions: male, nude, in vivo, iv, total radioactivity
# Source text: as §1
# [4] = tested on: 22RV1 CDX xenograft tumor; assay: Tissue biodistribution in 22Rv1 tumor mouse model; conditions: male, nude, in vivo, iv
# Source text: as §1
# [5] = T/NT ratio Tumor/Salivary Gland
# [6] = Tissue biodistribution: Salivary Gland
structure (smiles),measurement,setting,value
"O=C(O)CN1CCN(CC(=O)O)CCN(CC(=O)NC23CCC(Nc4c(N[C@@H](Cc5c6ccccc6cc6ccccc56)C(=O)NCCCC[C@H](NC(=O)N[C@@H](CNC(=O)C(=O)O)C(=O)O)C(=O)O)c(=O)c4=O)(CC2)CC3)CCN(CC(=O)O)CC1 [[^177Lu]Lu-E8, metal not drawn]",T/NT ratio Tumor/Bone,[1],169.77
same,T/NT ratio Tumor/Salivary Gland,[1],422.38
same,tissue uptake dose at 2 h,[2],16.4 ± 1.14 %ID
same,tissue uptake dose at 6 h,[2],4.69 ± 0.79 %ID
same,tissue uptake dose at 24 h,[2],3.21 ± 2.01 %ID
same,tissue uptake dose at 72 h,[2],0.99 ± 0.2 %ID
same,tissue uptake dose at 168 h,[2],0.91 ± 0.03 %ID
same,tissue to tissue ratio,[2]; T/NT ratio Tumor/Bone,183
same,tissue to tissue ratio,[2]; [5],220
same,tissue uptake at 2 h,[2]; Tissue biodistribution: Blood,0.87 ± 0.21 %ID/g
same,tissue uptake at 6 h,[2]; Tissue biodistribution: Blood,0.16 ± 0.04 %ID/g
same,tissue uptake at 24 h,[2]; Tissue biodistribution: Blood,0.03 ± 0.01 %ID/g
same,tissue uptake at 72 h,[2]; Tissue biodistribution: Blood,0.03 ± 0.01 %ID/g
same,tissue uptake at 168 h,[2]; Tissue biodistribution: Blood,0.03 ± 0.01 %ID/g
same,tissue uptake at 2 h,[2]; Tissue biodistribution: Bone,0.74 ± 0.16 %ID/g
same,tissue uptake at 6 h,[2]; Tissue biodistribution: Bone,0.33 ± 0.11 %ID/g
same,tissue uptake at 24 h,[2]; Tissue biodistribution: Bone,0.19 ± 0.01 %ID/g
same,tissue uptake at 72 h,[2]; Tissue biodistribution: Bone,0.22 ± 0.02 %ID/g
same,tissue uptake at 168 h,[2]; Tissue biodistribution: Bone,0.26 ± 0.04 %ID/g
same,tissue uptake at 2 h,[2]; Tissue biodistribution: Gland,1.96 ± 0.74 %ID/g
same,tissue uptake at 6 h,[2]; Tissue biodistribution: Gland,0.51 ± 0.1 %ID/g
same,tissue uptake at 24 h,[2]; Tissue biodistribution: Gland,0.18 ± 0.04 %ID/g
same,tissue uptake at 72 h,[2]; Tissue biodistribution: Gland,0.11 ± 0.01 %ID/g
same,tissue uptake at 168 h,[2]; Tissue biodistribution: Gland,0.1 %ID/g
same,tissue uptake at 2 h,[2]; Tissue biodistribution: Heart,1 ± 0.4 %ID/g
same,tissue uptake at 6 h,[2]; Tissue biodistribution: Heart,0.26 ± 0.13 %ID/g
same,tissue uptake at 24 h,[2]; Tissue biodistribution: Heart,0.11 %ID/g
same,tissue uptake at 72 h,[2]; Tissue biodistribution: Heart,0.09 %ID/g
same,tissue uptake at 168 h,[2]; Tissue biodistribution: Heart,0.11 %ID/g
same,tissue uptake at 2 h,[2]; Tissue biodistribution: Kidney,133 ± 12.3 %ID/g
same,tissue uptake at 6 h,[2]; Tissue biodistribution: Kidney,122 ± 20.9 %ID/g
same,tissue uptake at 24 h,[2]; Tissue biodistribution: Kidney,15.7 ± 4.09 %ID/g
same,tissue uptake at 72 h,[2]; Tissue biodistribution: Kidney,1.28 ± 0.08 %ID/g
same,tissue uptake at 168 h,[2]; Tissue biodistribution: Kidney,0.69 ± 0.32 %ID/g
same,tissue uptake at 2 h,[2]; Tissue biodistribution: Liver,0.58 ± 0.17 %ID/g
same,tissue uptake at 6 h,[2]; Tissue biodistribution: Liver,0.33 ± 0.05 %ID/g
same,tissue uptake at 24 h,[2]; Tissue biodistribution: Liver,0.23 ± 0.03 %ID/g
same,tissue uptake at 72 h,[2]; Tissue biodistribution: Liver,0.18 ± 0.02 %ID/g
same,tissue uptake at 168 h,[2]; Tissue biodistribution: Liver,0.15 ± 0.03 %ID/g
same,tissue uptake at 2 h,[2]; Tissue biodistribution: Lung,2.97 ± 0.89 %ID/g
same,tissue uptake at 6 h,[2]; Tissue biodistribution: Lung,0.75 ± 0.14 %ID/g
same,tissue uptake at 24 h,[2]; Tissue biodistribution: Lung,0.18 ± 0.03 %ID/g
same,tissue uptake at 72 h,[2]; Tissue biodistribution: Lung,0.08 ± 0.01 %ID/g
same,tissue uptake at 168 h,[2]; Tissue biodistribution: Lung,0.1 ± 0.04 %ID/g
same,tissue uptake at 2 h,[2]; Tissue biodistribution: Muscle,0.46 ± 0.09 %ID/g
same,tissue uptake at 6 h,[2]; Tissue biodistribution: Muscle,0.14 ± 0.04 %ID/g
same,tissue uptake at 24 h,[2]; Tissue biodistribution: Muscle,0.04 ± 0.01 %ID/g
same,tissue uptake at 72 h,[2]; Tissue biodistribution: Muscle,0.03 %ID/g
same,tissue uptake at 168 h,[2]; Tissue biodistribution: Muscle,0.04 ± 0.01 %ID/g
same,tissue uptake at 2 h,[2]; Tissue biodistribution: Spleen,3.87 ± 1.15 %ID/g
same,tissue uptake at 6 h,[2]; Tissue biodistribution: Spleen,1.05 ± 0.15 %ID/g
same,tissue uptake at 24 h,[2]; Tissue biodistribution: Spleen,0.39 ± 0.14 %ID/g
same,tissue uptake at 72 h,[2]; Tissue biodistribution: Spleen,0.31 ± 0.08 %ID/g
same,tissue uptake at 168 h,[2]; Tissue biodistribution: Spleen,0.43 ± 0.13 %ID/g
same,tissue uptake at 2 h,[2]; Tissue biodistribution: Tumor,30.8 ± 6.34 %ID/g
same,tissue uptake at 6 h,[2]; Tissue biodistribution: Tumor,35.7 ± 5.05 %ID/g
same,tissue uptake at 24 h,[2]; Tissue biodistribution: Tumor,37.9 ± 8.46 %ID/g
same,tissue uptake at 72 h,[2]; Tissue biodistribution: Tumor,48.2 ± 10 %ID/g
same,tissue uptake at 168 h,[2]; Tissue biodistribution: Tumor,44.3 ± 8.77 %ID/g
same,tissue to tissue ratio at 2 h,[2]; Tumor/Blood,38.4 ± 18.7
same,tissue to tissue ratio at 6 h,[2]; Tumor/Blood,237 ± 57.6
same,tissue to tissue ratio at 24 h,[2]; Tumor/Blood,1150 ± 312
same,tissue to tissue ratio at 72 h,[2]; Tumor/Blood,1690 ± 343
same,tissue to tissue ratio at 168 h,[2]; Tumor/Blood,1630 ± 208
same,tissue to tissue ratio at 2 h,[2]; Tumor/Bone,44.7 ± 20.4
same,tissue to tissue ratio at 6 h,[2]; Tumor/Bone,117 ± 45.7
same,tissue to tissue ratio at 24 h,[2]; Tumor/Bone,200 ± 55.6
same,tissue to tissue ratio at 72 h,[2]; Tumor/Bone,223 ± 43.2
same,tissue to tissue ratio at 168 h,[2]; Tumor/Bone,170 ± 19.3
same,tissue to tissue ratio at 2 h,[2]; Tumor/Kidney,0.24 ± 0.07
same,tissue to tissue ratio at 6 h,[2]; Tumor/Kidney,0.3 ± 0.05
same,tissue to tissue ratio at 24 h,[2]; Tumor/Kidney,2.59 ± 1.05
same,tissue to tissue ratio at 72 h,[2]; Tumor/Kidney,37.5 ± 6.4
same,tissue to tissue ratio at 168 h,[2]; Tumor/Kidney,70.9 ± 22.8
same,tissue uptake dose at 2 h,[3],8.22 ± 0.38 %ID
same,tissue uptake dose at 6 h,[3],5.13 ± 0.24 %ID
same,tissue uptake dose at 24 h,[3],2.13 ± 0.07 %ID
same,tissue uptake dose at 72 h,[3],0.81 ± 0.01 %ID
same,tissue uptake dose at 168 h,[3],1.34 ± 0.01 %ID
same,tissue to tissue ratio,[3]; T/NT ratio Tumor/Blood,570
same,tissue to tissue ratio,[3]; [5],201
same,tissue uptake at 2 h,[3]; Tissue biodistribution: Blood,0.4 ± 0.14 %ID/g
same,tissue uptake at 6 h,[3]; Tissue biodistribution: Blood,0.08 ± 0.04 %ID/g
same,tissue uptake at 24 h,[3]; Tissue biodistribution: Blood,0.03 %ID/g
same,tissue uptake at 72 h,[3]; Tissue biodistribution: Blood,0.02 %ID/g
same,tissue uptake at 168 h,[3]; Tissue biodistribution: Blood,0.02 ± 0.01 %ID/g
same,tissue uptake at 2 h,[3]; Tissue biodistribution: Bone,0.47 ± 0.09 %ID/g
same,tissue uptake at 6 h,[3]; Tissue biodistribution: Bone,0.26 ± 0.03 %ID/g
same,tissue uptake at 24 h,[3]; Tissue biodistribution: Bone,0.26 ± 0.04 %ID/g
same,tissue uptake at 72 h,[3]; Tissue biodistribution: Bone,0.34 ± 0.01 %ID/g
same,tissue uptake at 168 h,[3]; Tissue biodistribution: Bone,0.43 ± 0.1 %ID/g
same,tissue uptake at 2 h,[3]; Tissue biodistribution: Heart,0.57 ± 0.28 %ID/g
same,tissue uptake at 6 h,[3]; Tissue biodistribution: Heart,0.1 ± 0.01 %ID/g
same,tissue uptake at 24 h,[3]; Tissue biodistribution: Heart,0.07 %ID/g
same,tissue uptake at 72 h,[3]; Tissue biodistribution: Heart,0.07 ± 0.01 %ID/g
same,tissue uptake at 168 h,[3]; Tissue biodistribution: Heart,0.08 ± 0.01 %ID/g
same,tissue uptake at 2 h,[3]; Tissue biodistribution: Kidney,136 ± 16.7 %ID/g
same,tissue uptake at 6 h,[3]; Tissue biodistribution: Kidney,56.5 ± 18.9 %ID/g
same,tissue uptake at 24 h,[3]; Tissue biodistribution: Kidney,5.86 ± 1.87 %ID/g
same,tissue uptake at 72 h,[3]; Tissue biodistribution: Kidney,0.99 ± 0.04 %ID/g
same,tissue uptake at 168 h,[3]; Tissue biodistribution: Kidney,0.26 ± 0.01 %ID/g
same,tissue uptake at 2 h,[3]; Tissue biodistribution: Liver,0.34 ± 0.07 %ID/g
same,tissue uptake at 6 h,[3]; Tissue biodistribution: Liver,0.19 ± 0.03 %ID/g
same,tissue uptake at 24 h,[3]; Tissue biodistribution: Liver,0.18 ± 0.05 %ID/g
same,tissue uptake at 72 h,[3]; Tissue biodistribution: Liver,0.22 ± 0.01 %ID/g
same,tissue uptake at 168 h,[3]; Tissue biodistribution: Liver,0.23 ± 0.08 %ID/g
same,tissue uptake at 2 h,[3]; Tissue biodistribution: Lung,1.14 ± 0.31 %ID/g
same,tissue uptake at 6 h,[3]; Tissue biodistribution: Lung,0.32 ± 0.11 %ID/g
same,tissue uptake at 24 h,[3]; Tissue biodistribution: Lung,0.12 ± 0.02 %ID/g
same,tissue uptake at 72 h,[3]; Tissue biodistribution: Lung,0.09 ± 0.01 %ID/g
same,tissue uptake at 168 h,[3]; Tissue biodistribution: Lung,0.07 ± 0.02 %ID/g
same,tissue uptake at 2 h,[3]; Tissue biodistribution: Muscle,0.23 ± 0.03 %ID/g
same,tissue uptake at 6 h,[3]; Tissue biodistribution: Muscle,0.08 ± 0.01 %ID/g
same,tissue uptake at 24 h,[3]; Tissue biodistribution: Muscle,0.03 %ID/g
same,tissue uptake at 72 h,[3]; Tissue biodistribution: Muscle,0.02 %ID/g
same,tissue uptake at 168 h,[3]; Tissue biodistribution: Muscle,0.03 ± 0.01 %ID/g
same,tissue uptake at 2 h,[3]; [6],0.57 ± 0.19 %ID/g
same,tissue uptake at 6 h,[3]; [6],0.2 ± 0.07 %ID/g
same,tissue uptake at 24 h,[3]; [6],0.08 %ID/g
same,tissue uptake at 72 h,[3]; [6],0.09 ± 0.01 %ID/g
same,tissue uptake at 168 h,[3]; [6],0.06 ± 0.01 %ID/g
same,tissue uptake at 2 h,[3]; Tissue biodistribution: Spleen,6.44 ± 3.19 %ID/g
same,tissue uptake at 6 h,[3]; Tissue biodistribution: Spleen,0.88 ± 0.26 %ID/g
same,tissue uptake at 24 h,[3]; Tissue biodistribution: Spleen,0.28 ± 0.05 %ID/g
same,tissue uptake at 72 h,[3]; Tissue biodistribution: Spleen,0.35 ± 0.01 %ID/g
same,tissue uptake at 168 h,[3]; Tissue biodistribution: Spleen,0.39 ± 0.11 %ID/g
same,tissue uptake at 2 h,[3]; Tissue biodistribution: Tumor,19.7 ± 9.31 %ID/g
same,tissue uptake at 6 h,[3]; Tissue biodistribution: Tumor,18.8 ± 1.68 %ID/g
same,tissue uptake at 24 h,[3]; Tissue biodistribution: Tumor,22.7 ± 7.83 %ID/g
same,tissue uptake at 72 h,[3]; Tissue biodistribution: Tumor,24.3 ± 1.92 %ID/g
same,tissue uptake at 168 h,[3]; Tissue biodistribution: Tumor,11.9 ± 4.35 %ID/g
same,tissue to tissue ratio at 2 h,[3]; Tumor/Blood,62.7 ± 54.4
same,tissue to tissue ratio at 6 h,[3]; Tumor/Blood,277 ± 98.9
same,tissue to tissue ratio at 24 h,[3]; Tumor/Blood,754 ± 166
same,tissue to tissue ratio at 72 h,[3]; Tumor/Blood,1120 ± 40
same,tissue to tissue ratio at 168 h,[3]; Tumor/Blood,555 ± 353
same,tissue to tissue ratio at 2 h,[3]; Tumor/Bone,41.5 ± 19.5
same,tissue to tissue ratio at 6 h,[3]; Tumor/Bone,73.6 ± 6.68
same,tissue to tissue ratio at 24 h,[3]; Tumor/Bone,87.2 ± 16.1
same,tissue to tissue ratio at 72 h,[3]; Tumor/Bone,72.1 ± 4.85
same,tissue to tissue ratio at 168 h,[3]; Tumor/Bone,27.7 ± 7.2
same,tissue to tissue ratio at 2 h,[3]; Tumor/Kidney,0.15 ± 0.09
same,tissue to tissue ratio at 6 h,[3]; Tumor/Kidney,0.35 ± 0.11
same,tissue to tissue ratio at 24 h,[3]; Tumor/Kidney,3.97 ± 0.93
same,tissue to tissue ratio at 72 h,[3]; Tumor/Kidney,24.5 ± 2.46
same,tissue to tissue ratio at 168 h,[3]; Tumor/Kidney,45.6 ± 16.3
same,T/NT ratio Tumor/Blood,[4],497.77
same,T/NT ratio Tumor/Salivary Gland,[4],183.55
